First the molecules themselves.
B1: Cadicivirus B (nucleic acid)
DNA: CACCAACCCTTGACCTGTAATGTCAGTGGACAGAGTGCTCCTCTGTTCCCGGTTACCGTGTTCCAGGACACGATTGTAATCCTGCGCCTCACCAGCGCTGCGTGCACGTCTGCATAAGGAAACGTGCCTTCCCCATGTCTCTATCAATTCTTTGGTGAGTGACCGCCCTAGTTGCTCATCCTATGGGATTCTTCTCTCATGGGTTCTTTGTGGCATGCGAATGTCACCTTAATTGGAGGTCTTTAATTAGATATCCTTTCTTCATCTTTGATATGAGTGTCGGAATTTGATTCCTAGTCTCTGCAAAACAACCCCACTTGATGAATTCAACTTTTCAACCGCACAAACATAATCAGGTTTTTAAATTGAATGTTTCTAAATTCTAAATTTAGTTTATTTAAGTAGTTTGCCATCTTGACTCGATGTAAAATTGTCATACAAGTCTTCTTTTCTTTTCTTTACACTTTGAAGTTTGCACTTAGCAGTCGTTCTGCACAGCTTTCGAGTTTTGTTTGATCGACATCGCAACTTCCACCCACCTCTCTTTTTCTAGTGTTGAATGCGGCTAATCCTAACCCGAGAGCAATAAACCCAGGTTTATTGTCGTAACGCGCAAGTCTTGGACGGAACCGACTATACACACACCTCTTTACCCTTTAGTACACCCTTGGTACG
modifications: Cadicivirus B
B2: Rabovirus A NYC-B10 (nucleic acid)
DNA: CCGACCCCACTGGTCGAAGGCCACTTGGCAATAAGACTGGTGGAACAAGGTCGCCTGTAGTTGATTGGAACCTTCTTTCTAATGACTTATGTCAGCGGTGCTACTCACACCGTAACTCTCCTACCCTATCCCCACGCTTGTGGAACTAGGAGGGGATGAGTGATTCAAGTAAGTACTGTCAGAATGGTGAAAATAATCTGATTCTGAAACGCTATGGATCCATCGAAAGATGGGGCTACACGCCTGCGGAACAACACATGGTAACATGTGCCCCAGGGGCCGAAAGCCACGGTGATAGGATCACCCGTGTAGTTTGAGATCATATCAATGTTCATAGTCTAGTAAGATGATTTGAAATCTAACTGGTCTGATGGCTAACTGCTTGTCTTATTGCGGCCTAAGGATGTCCTGCAGGTACCTTTAGAGAACCTTAAGAGACTATTGATCTGAGCAGGAGCCAAGGTGGTCTTTCCCAGCCTTGGTTAAAAAGCGTCTAAGCCGCGGCAGGGGGCGGGAGGCCCCCTTTCCTCCCAAACTATAATATAGATTGT
modifications: Rabovirus A
B3: Parabovirus C (nucleic acid)
DNA: GATGTATCCCCATCCCCCAGTGTGTATGCCATACTGCATAGCTCGCCTATGCCCTATGGATTCACAACCCTTTCATATACCCTCCCTACCCAACCCCGTAACCACATGCTTTACTCCGCTTGGGGTTTTGCGGCCCCATGTTGTGACGAAATGGCTACGCAATCAATGCGGCTAATGGGGCCTGCCGCTTTTAAGTGGCCCCAGTTAGAAGTTTATGCACACCCGCCCATTAGGAGGCCACCAGCCAGGTGGTCAGAGGGCAAGCACTTCTGTTTCCCCGGTGAAGTTTGATAAGCTGTGCCCACGGCTGAAGCAGACAGATCCGTTACCCGCCTCACTACTACGAGACGGCTAGTAGTGTGTAATATCCGAATTTCATTGATCCGGGTGTTCCCCCCACCCAGAAACGTGTGATGAGGAGCGGCACCCCTCCTATGGCAACATAGGGCCTCTCCTGCGCTGGCACACGGGCTCTATGAGCATGAAATCAGGAGAAAGTCACACGAAGACCTTATTGTGCTAGTGTTGATTCCTCCGCCCCCCTGAATGCGGCTAATCCCAACTCCGGAGCGCCCGCTGGCAAACCCGCCAGAAGAGCGTCGTAATGCGTAAGTCTGGAGCGGAACCGACTACTTTGGGTGTGGCGTGTTTCCTTTATTTCCTTTGTATTTGTAT
modifications: Parabovirus C
B4: Parabovirus B (nucleic acid)
DNA: AACCCATAATCCATTGTCCATCAATGTTTTATGGGGGGGACCCTTTCTCCCCTCCCCCTCCAAATACCTTTTACCCCTCTGTAACCAAGAGTGTGCAAAATCTATTTACTAGCCCAGAATTGCGGCTTCTGGGGAGGTTTATTCCTCATGCCTAACAAGATGTTACGCAAACTCCGGGCTACGGCCCTGGGCTTTTGCCCTAAAGATTTAGAAGTTTACACTATCGTCCAACAGGAGGACAACAAACCAGTTGTTCTAAGGACAAGCACTTCTGTTTCCCCGGTGAGACTGGATAGACTGTACCCACGGTTGAAACTGGTTGATCCGTTACCCGACTCACTACTTCGAGAAGATTAGTAGGAAACTGTGAAACTGATTCCATTGATCCGGATACTTTCCCCGTATCCAGAAACTACTGATGAGGGTTGACTTCCCGACTACGGCGACGTAGTGTCATCCCTGCGCTGGCAGTAGGCCTCTTTGAGGATGGAAGATGTGGATCGGTAACCGAAGGTCCTATTGAGCTAGTGTTTATACCTCCGGCCTCCTGAATGCGGCTAATCCTAACCCATGATCTAGTGCTCACAAACCAGTGAGTAGCTAGTCGTAACGCGTAAGTCGTGGGCGGAACCGACTACTTTGGAGTGACCGTGTTTCCTATTTTACTTTTGTTTG
modifications: Parabovirus B
B5: Rabovirus C (nucleic acid)
DNA: CCGGGTATAACCCGGAGTTTTGGGGCAGGTCCAAGCCCCACATAGGAACATACGATCCACGGATCGTGTGTTCTTTTATGCTTTCTAACCTTACCCTTTGTAACCATTACGCTTTACGCCGCATGGTGTTTGGCGGCACCATGACGTGGACAAGAGGTTACGCCATTACGATATGTACCCTCCCCTTTTGGGGAGAGACCGACCAATTATGGTACAGTATCCAACTGTATTGTGGTCAAGTACTTCTGTTTCCCCGGTGATGCGGGATAGGCTGTACCCACGGCCAAAACCTGCTGATCCGTTACCCGACTCACATCTACGAGGAGGCTAGTAAAAGGCATGAAGTTCAAGAGTATGATCCAACCAGATCCCCACTGGTAAACTAGTGATGAGGGTTCCCGTTCCGAACATGGCAACATGTGGGTTCCCTGCGTTGGCACTAGGCCCCTTCCGAGGGGTGCTCTGAAGATGGATTGTTGATGAAGACCAATTTGTGCATGTGTTTATCCTCCGGCCCTCTGA
modifications: Rabovirus C
B6: Simian Sapelovirus 1 (nucleic acid, listed as Sapelovirus sp.)
DNA: CCAAGGATCTGTTGCATAGGCGTTGTATCCCCTAACCTTTTACCTACCCATCCCAATAGGACTGGTATTTCGGTTTTGATTGAGTAATGGATACTGATTCTATACCTGTTACCCATTCAGGGGAAAAATGGAGTTTCTTTCATGGATCTGACTTGATATGACCAAGAGTCAACACTTTGCGTGTTGGCCGTATGGAATGCTTTAAGGTTTATTCTTTGGATTATGACTTCAGGGTTGGCCGCCCAGGATAAAAGGCAATTGTGGTAAGTGATGTTAGTCATTGGTGGTTGAAACCTGCCTAAGACGTCCTAGGTCTACGCTGTGCGGGCCGAAGTAAGCTTAGGAATAACAGGGAGTATGCCATTTTCTGCTTTCACCCAACACGACCGTACACGAAAGAGCTAGAGGCACTTTGGGGCAAAGGGAAAAGCTTTGCTTAGCCCGAATGTTCATTTGAGTCCTTGACGAATGCGTCCCGTCTGTCCCGACGGTGAGGCGTATGGCGCATGCTCATGGCATTACCCAATGGTGTATCTGTGAGGGGGGGGCTCCTCACACTTAGTCTAGTGCTACCTGACAGGGCCGCGGCTGGTCGTTTGTGTATGGTATAACCAGTAGTAATCCCCCATGGATTGCTTTAACTTCCCCTCCTCCCTTACCAAGACATTCTCTAAG
B7: Felipivirus 127F (nucleic acid, listed as Felipivirus sp.)
DNA: GATGTCGGATGACGGCTGGCCACCGGGGAAAAACGGCAAATGTGCACCACCTCTGCAACCCACGCCGACCACGTTTAACCATGGCGTTAGTAGGAGTGGACCACTGCAGTGGGCTCTGGTGTGCGACAGTCAGTGGTAGAGTAGACAGTCCTGACTGGGCAATGGGACCGCGTTGCGTATCCCTAGGTGGCATCGAGATTCCTCTGCTACCCACCAGCGTGGACTCCTATGGGGGGGGCCCCATAGGCTAGGTCTATACTGCCTGATAGGGTCGCGGCTGGTCGACCACTGACTGTATAACCAGTTGTAACTCACT
B8: Simian Sapelovirus 2 (nucleic acid, listed as Sapelovirus sp.)
DNA: TTTTAACTTGTTATGACATTCAAGGAAAAAATGTCTTTTTCATTATGGGACTGACCTGTTTATGAACATGAGCAGCGGCACTGCTCCACGGGCTATCCGTGTAAGAAATATTGATTATTCTTATGGATCATGATTTCAGGGTTGGCCGCCCAGTCTAAAAGGCAATTGTGGTAAGCTATGTAAGTAGTTGGCTGTTGAAAGGAGCCAAGTACATCCTAGGTCTACGCTGTGCGGGCCGAAGTAAGACTTGGAACAACTCTGAGTAGGCAGTTTTTCTCTTTAGCCCAACACGACCGCATACTGAAGAGCTAGAGGCACTTTGGGGCAAAGGTAAAAGCATTGCTTAGACCGAATGTTCAATGAGACCTTGACGAGTGCTGTCACAGTGTCCCCTGATGGCAGTATGGCGCATGCTCTTGGCATTACCCATATGTGTATCTATAGGGGGGGGGCCCCCTATACTTAGTCTAGTGCTACCTGACAGGGCCGCGGCTGGTCGTCGGTGTGTGGTATAACCAGTAGTAATCCCCCATGGATTGCTTTAACTCCCCCTCCTCCCTCAACAAAACTTTCTCTAAG
B9: Parabovirus A3 (nucleic acid, listed as Parabovirus sp.)
DNA: ACCGTTACGCACCACTCAGTTGGTGTTTGGTGGCACCAATGATGGAACAAAAGGCTACACCACTTGGGCTACGGCCCGCGCCACCTTGTGGCGCAAAGACATTAGAAGAATAGCATACCGCCCACTAGGGCCCTGCAGCCAGCAGGGTAACGGGCAAGCACTTCTGTCTCCCCGGTAGAACGGTATAGGCTGTACCCACGGCCGAAAACTGAACTATCGTTACCCGACTCCGTACTTCGCAAAGCTTAGTAGGAAACTGGAAAGTTCGAGTTATTGACCCGGAGTGTTCCCCCCACTCCAGAAACGCGTGATGAGGGTTGCCACCCCGACCATGGCGACATGGTGGGCATCCCTGCGCTGGCACGCGGCCTCTAAGAGGATAACTCGCTCCTACTGGTAACCGAAGAGCCCCGTGAGCTACGGTTTATTCCTCCGCCTCCCTGAATGCGGCTAATCCTAACCCATGAGCAGTTGCCATAGATCCATATGGTGGACTGTCGTAACGCGTAAGTTGTGGGCGGAACCGACTACTTTGGGATGGCGTGTTTCCTTGTTTTCTCCATTTGTTGTTGTATGGTGACAAGTTATAGATCTCGATCTATAGCGTTTCTTGAGAGATTTCCAAACATTTATTCAAGTCGTACAATTCTTGTGTTTAAGCAGTACAGTGTAAGG

Experimental findings from US20230226096A1 (Orna Therapeutics, Inc., priority 2020, published 2023) are described below.

The series concerns HEK293 cells. The class given is cell-based, human. The following applies: luminescence from secreted Gluc in supernatant 24 hours after transfection of HEK293 cells; circular RNA encoding Gluc with the named IRES (UTR truncated to 675 nt).
B1 gave an Expression of 2.10E+05.
The same measure for B2: 1.24E+06; for B3: 1.83E+07.
In turn, B4 returned an Expression of 7.85E+06.
B5 displayed an Expression of 2.49E+06.
Then B6, with 6.55E+07.
In turn, B7 displayed an Expression of 8.92E+06.
As to B8, the Expression was 4.24E+07.
The same measure for B9: 2.44E+08.
